Results published in patent US20120328625A1.

Key:
[1] = target: Shh-N in conditioned medium (human) (UniProt Q15465); test: cell-based or functional assay
[2] = target: full length human Shh expressed on the cell surface (human) (UniProt Q15465); test: flow cytometry, transfected against parental 293T cells
[3] = target: biotinylated human Shh (human) (UniProt Q15465); test: ELISA, biotin-Shh coated at 500 ng/ml on neutravidin; antibody 1 ug/ml
[4] = target: full length human Shh expressed on the cell surface (human) (UniProt Q15465); test: FMAT, antibody 10 µg/ml on 293T cells transiently expressing human Shh
[5] = target: full length human Shh expressed on the cell surface (human) (UniProt Q15465); test: flow cytometry, transfected against parental 293T cells; antibody 2 ug/ml
[6] = target: full length human Shh expressed on the cell surface (human) (UniProt Q15465); test: flow cytometry, transfected against parental 293T cells; antibody 0.2 ug/ml
[7] = target: full length human Shh expressed on the cell surface (human) (UniProt Q15465); test: flow cytometry, transfected against parental 293T cells; antibody 0.02 ug/ml
[8] = target: full length human Shh expressed on the cell surface (human) (UniProt Q15465); test: flow cytometry, antibody 2 µg/ml, 293T cells transiently expressing human Shh
[9] = target: full length human Shh expressed on the cell surface (human) (UniProt Q15465); test: flow cytometry, 293T cells transiently transfected with human Shh; antibody 2 ug/ml
[10] = target: full length human Shh expressed on the cell surface (human) (UniProt Q15465); test: flow cytometry, 293T cells transiently transfected with human Shh; antibody 0.2 ug/ml
[11] = target: full length human Shh expressed on the cell surface (human) (UniProt Q15465); test: flow cytometry, 293T cells transiently transfected with human Shh; antibody 0.02 ug/ml
[12] = target: full length human Shh expressed on the cell surface (human) (UniProt Q15465); test: cell-based or functional assay

5E1 (antibody)
IC50, inhibition of osteoblast differentiation (alkaline phosphatase) of C3H10T1/2 cells [1]: 2.9 nM

rat anti-Shh antibody (cat# MAB4641, R&D Systems, Inc.)
Ratio [2]: 0.7 | OD [3]: 4.81 OD | FL1 X COUNT [4]: 1.47e+06 | Ratio [5]: 443 | Ratio [6]: 106 | Ratio [7]: 13.7 | X Geo Mean (Transients) [8]: 3 | X Geo Mean (Transients) [9]: 965 | X Geo Mean (Transients) [10]: 221 | X Geo Mean (Transients) [11]: 28.5

huIgG2/4 (antibody)
% Inhibition of Gli1 reporter, Conditioned Media N = 1, 20 µg/ml [1]: 2% | % Inhibition of Gli1 reporter, Conditioned Media N = 2, 20 µg/ml [1]: 23% | % Inhibition of Gli1 reporter, Co-Culture N = 1, 20 µg/ml [12]: 18% | % Inhibition of Gli1 reporter, Co-Culture N = 2, 20 µg/ml [12]: 7% | % Inhibition of Gli1 reporter, Co-Culture N = 3, 20 µg/ml [12]: 2%
